Patent US20150284450A1 (AstraZeneca / MedImmune, published 2015)

Molecular target: PcrV as expressed by live P. aeruginosa (strains 6077 and 6206) in the cytotoxicity and RBC lysis assays (Pseudomonas aeruginosa)
Assay: cell-based or functional assay

B1: anti-PcrV monoclonal antibody V2L2 (antibody, V domains shown)
VH: EMQLLESGGGLVQPGGSLRLSCAASGFTFSSYAMNWVRQAPGEGLEWVSAITISGITAYYTDSVKGRFTISRDNSKNTLYLQMNSLRAGDTAVYYCAKEEFLPGTHYYYGMDVWGQGTTVTVSS
VL: AIQMTQSPSSLSASVGDRVTITCRASQGIRNDLGWYQQKPGKAPKLVIYSASTLQSGVPSRFSGSGSGTDFTLSISSLQPDDFATYYCLQDYNYPWTFGQGTKVEIK
  inhibition of cytotoxicity (A549 lysis by P. aeruginosa 6077, LDH release), IC50: 0.1 µg/mL
  inhibition of cytotoxicity, IC50 relative to mAb166: 28 fold lower
  prevention of RBC lysis (rabbit RBCs, P. aeruginosa 6077), IC50: 0.37 µg/mL
  prevention of RBC lysis, IC50 relative to mAb166: 10 fold lower
